# In patent US20260265385A1 (ANAPTYSBIO, published 2026):
# Positions count from the first letter of the chain named.
# B1: APE15148 (antibody, V domains shown)
# VH: QVQLVQSGAEVKKPGASVKVSCKASGYTFSRYWIQWVRQAPGQGLEWMGEILPGSGSINHNEKFQGRVTMTRDTSTSTVYMELSSLRSEDTAVYYCTRHYGSFDYWGQGTTVTVSS
# VL: DIQMTQSPSSLSASVGDRVTITCKASQNVGTDVAWYQQKPGKAPKSLIYSASYRYSGVPSRFSGSGSGTDFTLTISSLQPEDFATYFCHQYESYPFTFGQGTKLEIKR
# notes: M6-p1625 series
# B2: APE15170 (antibody)
# heavy: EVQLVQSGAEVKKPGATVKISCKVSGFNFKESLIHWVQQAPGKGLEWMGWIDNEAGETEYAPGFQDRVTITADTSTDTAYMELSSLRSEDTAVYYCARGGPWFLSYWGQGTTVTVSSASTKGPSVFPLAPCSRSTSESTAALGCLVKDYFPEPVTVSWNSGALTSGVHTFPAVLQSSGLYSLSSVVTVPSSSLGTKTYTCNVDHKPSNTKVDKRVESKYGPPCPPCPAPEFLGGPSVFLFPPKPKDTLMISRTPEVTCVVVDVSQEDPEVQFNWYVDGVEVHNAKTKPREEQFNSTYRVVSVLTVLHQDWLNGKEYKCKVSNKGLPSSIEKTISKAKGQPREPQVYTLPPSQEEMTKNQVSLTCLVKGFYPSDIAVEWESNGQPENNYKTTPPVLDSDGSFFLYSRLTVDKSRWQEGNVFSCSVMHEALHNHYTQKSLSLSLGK
# light: EIVMTQSPATLSVSPGERATLSCRASQIISNNLHWYQQKPGQAPRLLIIYGLQSISGIPARFSGSRSGTEFTLTISSLQSEDFAVYFCQQSNNFPWTFGQGTKLEIKRTVAAPSVFIFPPSDEQLKSGTASVVCLLNNFYPREAKVQWKVDNALQSGNSQESVTEQDSKDSTYSLSSTLTLSKADYEKHKVYACEVTHQGLSSPVTKSFNRGEC
# notes: M10-1275 series
# B3: APE15142 (antibody, V domains shown)
# VH: EVQLVQSGAEVKKPGATVKISCKVSGFNFKYSLIHWVQQAPGKGLEWMGWIDNEAGETEYAPGFQDRVTITADTSTDTAYMELSSLRSEDTAVYYCARGGPWFLSYWGQGTTVTVSS
# VL: EIVMTQSPATLSVSPGERATLSCRASQIISNNLHWYQQKPGQAPRLLIIYGLQSISGIPARFSGSRSGTEFTLTISSLQSEDFAVYYCQQSNNWPWTFGQGTKLEIKR
# notes: M10-1275 series
# B4: APE15140 (antibody, V domains shown)
# VH: B3 VH with Y31E
# VL: B3 VL
# notes: M10-1275 series
# B5: APE15144 (antibody, V domains shown)
# VH: B3 VH with Y31L
# VL: B3 VL
# notes: M10-1275 series
# B6: APE15145 (antibody, V domains shown)
# VH: B3 VH with Y31L, I34M
# VL: B3 VL
# notes: M10-1275 series
# B7: APE15167 (antibody, V domains shown)
# VH: B3 VH with Y31E, I34M, N53V
# VL: B3 VL
# notes: M10-1275 series
# B8: APE15168 (antibody, V domains shown)
# VH: B3 VH with Y31E
# VL: B3 VL with Y87F, W94F, W96Y
# notes: M10-1275 series
# B9: APE15169 (antibody, V domains shown)
# VH: B3 VH with Y31E
# VL: B3 VL with Y87F, W96Y
# notes: M10-1275 series
# B10: APE15171 (antibody, V domains shown)
# VH: B3 VH
# VL: B3 VL with Y87F, W94F, W96Y
# notes: M10-1275 series
# B11: APE15172 (antibody, V domains shown)
# VH: B3 VH
# VL: B3 VL with Y87F, W96Y
# notes: M10-1275 series
# B12: APE15173 (antibody, V domains shown)
# VH: B3 VH
# VL: B3 VL with Y87F, W94F
# notes: M10-1275 series
# B13: APE15276 (antibody, V domains shown)
# VH: B3 VH with Y31E, G99S
# VL: B3 VL with Y87F, W94F
# notes: M10-1275 series
# B14: APE15295 (antibody)
# heavy: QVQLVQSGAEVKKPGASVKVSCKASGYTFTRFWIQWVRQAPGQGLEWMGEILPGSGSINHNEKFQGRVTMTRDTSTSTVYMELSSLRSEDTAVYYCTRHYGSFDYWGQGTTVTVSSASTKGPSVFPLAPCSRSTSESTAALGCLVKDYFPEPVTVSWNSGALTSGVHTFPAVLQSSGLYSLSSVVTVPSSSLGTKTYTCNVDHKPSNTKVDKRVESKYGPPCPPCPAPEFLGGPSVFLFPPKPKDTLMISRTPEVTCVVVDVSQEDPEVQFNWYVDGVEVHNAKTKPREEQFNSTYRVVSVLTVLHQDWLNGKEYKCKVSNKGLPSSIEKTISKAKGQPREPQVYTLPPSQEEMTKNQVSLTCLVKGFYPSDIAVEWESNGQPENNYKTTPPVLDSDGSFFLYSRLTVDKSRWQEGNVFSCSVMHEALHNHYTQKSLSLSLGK
# light: DIQMTQSPSSLSASVGDRVTITCKASQNVGTDVAWYQQKPGKAPKSLIYSASYRYSGVPSRFSGSGSGTDFTLTISSLQPEDFATYFCHQYESYPFTFGQGTKLEIKRTVAAPSVFIFPPSDEQLKSGTASVVCLLNNFYPREAKVQWKVDNALQSGNSQESVTEQDSKDSTYSLSSTLTLSKADYEKHKVYACEVTHQGLSSPVTKSFNRGEC
# notes: M6-p1625 series
# B15: APE15428 (antibody)
# heavy: not shown
# light: B14 light
# notes: M6-p1625 series
# B16: APE15446 (antibody)
# heavy: not shown
# light: B2 light
# notes: M10-1275 series
# Assays:
# [1] = target: T1, cynomolgus IL-2Rβ (CD122), full-length, on cells (cynomolgus, UniProt Q38J85 27-551); assay: flow cytometry on CHO-K1 cells expressing cynomolgus IL-2Rβ and IL-2Rγ (panel 'Cell Binding cyno IL-2Rbg CHO'); unit taken from the axis 'Antibody Concentration nM'
# T1 construct: whole, on cells; Co-expressed with full-length cynomolgus IL-2Rγ on CHO-K1 cells; also called cynomolgus IL-2Rβγ; cyno IL-2βγ
# T1 sequence (looked up): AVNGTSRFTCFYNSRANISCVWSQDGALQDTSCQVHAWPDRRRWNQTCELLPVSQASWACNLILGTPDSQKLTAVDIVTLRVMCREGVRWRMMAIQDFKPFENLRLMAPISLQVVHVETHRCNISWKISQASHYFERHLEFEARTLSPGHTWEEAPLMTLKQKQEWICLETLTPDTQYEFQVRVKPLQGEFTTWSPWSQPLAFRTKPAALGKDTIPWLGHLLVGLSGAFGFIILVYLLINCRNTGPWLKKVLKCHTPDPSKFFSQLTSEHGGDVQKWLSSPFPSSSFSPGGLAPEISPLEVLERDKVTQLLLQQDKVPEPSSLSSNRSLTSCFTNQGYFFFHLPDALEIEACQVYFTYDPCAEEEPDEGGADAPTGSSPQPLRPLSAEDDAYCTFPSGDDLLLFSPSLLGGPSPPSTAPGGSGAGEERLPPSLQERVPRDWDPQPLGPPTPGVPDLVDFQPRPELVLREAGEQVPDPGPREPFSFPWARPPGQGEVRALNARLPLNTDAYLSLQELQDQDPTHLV
# Method: (§1) CHO-K1 cells stably expressing either full-length human or cyno IL-2Rβ and IL-2Rγ cultured in the log phase of growth were harvested with Accutase solution, resuspended in FACS buffer, and plated at 100,000 cells/well in a 96 well plate. The concentrations indicated in FIG. 5 of antibodies starting at 100 nM and diluted 1:3 were incubated with the cells for 45 minutes on a plate shaker at4° C. After washing, cells were incubated with goat anti-human kappa DyL650 secondary antibody for 20 minutes on a plate shaker at4° C. Cells were washed again and analyzed on a FACSArray flow cytometer. Data were analyzed using Novoexpress and GraphPad Prism software.
# [2] = target: T2, human IL-2Rβ (CD122), full-length, on cells (human, UniProt P14784 27-551); assay: flow cytometry on CHO-K1 cells expressing human IL-2Rβ and IL-2Rγ (panel 'Cell Binding human IL-2Rbg CHO'); unit taken from the axis 'Antibody Concentration nM'
# T2 construct: whole, on cells; also called human IL-2Rβγ; human IL-2βγ
# T2 sequence (looked up): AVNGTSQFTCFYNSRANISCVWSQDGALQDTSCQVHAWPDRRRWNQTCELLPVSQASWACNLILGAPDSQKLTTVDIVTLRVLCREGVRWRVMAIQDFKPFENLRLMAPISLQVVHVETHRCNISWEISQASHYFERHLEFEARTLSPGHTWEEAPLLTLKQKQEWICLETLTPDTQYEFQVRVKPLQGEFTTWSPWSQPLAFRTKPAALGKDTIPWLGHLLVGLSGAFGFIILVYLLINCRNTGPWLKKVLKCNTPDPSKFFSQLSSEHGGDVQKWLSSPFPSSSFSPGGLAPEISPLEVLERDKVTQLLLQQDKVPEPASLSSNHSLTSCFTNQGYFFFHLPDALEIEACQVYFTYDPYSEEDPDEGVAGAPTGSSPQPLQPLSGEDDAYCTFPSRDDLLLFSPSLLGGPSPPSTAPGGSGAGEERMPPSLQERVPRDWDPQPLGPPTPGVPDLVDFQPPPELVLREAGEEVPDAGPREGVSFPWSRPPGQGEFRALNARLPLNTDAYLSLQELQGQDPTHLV
# Method: as §1
# [3] = target: T3, recombinant cynomolgus IL-2Rβ (extracellular domain, Ala1-Thr215) (cynomolgus, UniProt Q38J85 27-240); assay: SPR, antibody captured on Protein A chip
# T3 construct: extracellular domain; Analyte in SPR; also called cynomolgus LL-2Rβ; Cyno IL-2RB
# T3 sequence (looked up): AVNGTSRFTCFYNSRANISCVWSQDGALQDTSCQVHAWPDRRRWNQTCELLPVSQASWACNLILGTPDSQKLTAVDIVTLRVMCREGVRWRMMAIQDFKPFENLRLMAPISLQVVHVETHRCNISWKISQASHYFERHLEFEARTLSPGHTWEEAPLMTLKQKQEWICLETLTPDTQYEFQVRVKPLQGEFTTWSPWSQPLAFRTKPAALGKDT
# Method in brief: (§2)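 Antibodies captured on a Protein A chip (0.5 μg/mL, 60 s), then exposed to IL-2Rβ extracellular domain (Ala1-Thr215) at about 0.4–11 nM; 300 s association, 1200 s dissociation. On- and off-rates and KD from a global 1:1 binding fit.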
# [4] = target: T4, recombinant human IL-2Rβ (extracellular domain, Ala1-Thr215) (human, UniProt P14784 27-240); assay: SPR, antibody captured on Protein A chip
# T4 construct: extracellular domain; Analyte in SPR; Ala1-Thr215 is counted on the mature protein; also called human LL-2Rβ; Human IL-2RB
# T4 sequence (looked up): T3 sequence (looked up) with R7Q, T66A, A74T, M83L, M92V, K127E, M158L
# Method in brief: as §2
# [5] = target: T2, human IL-2Rβ (CD122), full-length, on …; assay: flow cytometry competition: antibody titrated against recombinant IL-15 (2 nM) binding to HEK293 cells expressing human IL-2Rβ and IL-2Rγ
# Method: (§3) HEK293 cells stably transfected with human IL-2Rβ and IL-2Rγ were plated at 100,000 cells/well in a 96 well plate. Antibodies were titrated at the concentrations indicated in FIG. 8 starting at 100 nM and diluted 1:3, and added to the cells. Recombinant IL-2 (5 nM) or recombinant IL-15 (2 nM) were also added to the cells. Cells were incubated for 30 minutes on a plate shaker at 4° C. Cells were washed and then analyzed on a flow cytometer, and data were analyzed using Novoexpress and GraphPad Prism software.
# [6] = target: T2, human IL-2Rβ (CD122), full-length, on …; assay: flow cytometry competition: antibody titrated against recombinant IL-2 (5 nM) binding to HEK293 cells expressing human IL-2Rβ and IL-2Rγ
# Method: as §3
Binder,EC50 [1] [pM],EC50 [2] [pM],Kd [3] [pM],Kd [4] [pM],IC50 (read off the curve) [5] [pM],IC50 (read off the curve) [6] [pM]
B1,103,105,71.5,94.5,,
B2,146,139,4.87,12.8,~400,~400
B3,163,147,10.5,22.2,,
B4,180,138,10.2,21.7,,
B5,,,11.6,29.7,,
B6,,,10.8,29.6,,
B7,,,6.55,45,,
B8,,,37.9,324,,
B9,333,308,14.4,99.5,,
B10,,,52.2,276,,
B11,,,27.1,116,,
B12,,,5.09,18.4,,
B13,,,5.99,17.8,,
B14,,,70.7,55.7,~50,~80
B15,,,76.5,56.7,,
B16,,,4.15,10.7,,
